Measurements taken from patent US8624002B2, “Prostaglandin E2 binding proteins and uses thereof” (AbbVie, Inc., priority 2008, dated 2014).

B1: 2B5-7.0: recombinant anti-PGE2 antibody from solved 2B5 sequence; VH SEQ ID NO 40, VL SEQ ID NO 41 (antibody, V domains shown)
VH: QVQLQQSGPELVRPGSSVKISCKASGYTFTKYWLGWVKQRPGHGLEWIGDIYPGYDYTHYNEKFKDKATLTVDTSSSTAYMQLSSLTSEDSAVYFCARSDGSSTYWGQGTLVTVSA
VL: DVLMTQTPLSLPVSLGDQASISCTSSQNIVHSNGNTYLEWYLQRPGQSPKLLIYKVSNRFSGVPDRFSGSGSGTVFTLKISRVEAEDLGVYYCFQVSHVPYTFGGGTKLEIKR
B2: 2B5-9.0: recombinant anti-PGE2 antibody from solved 2B5 sequence; VH SEQ ID NO 44, VL SEQ ID NO 45 (antibody, V domains shown)
VH: QVQLQQSGPELVRPGSSVKISCKASGYTFTKYWLGWVKQRPGHGLEWIGDIYPYGDYTHYNEKFKDKATLTVDTSSSTAYMQLSSLTSEDSAVYFCARSDGSSTYWGQGTLVTVSA
VL: DVLMTQTPLSLPVSLGDQASISCTSSQNIVHSNGNTYLEWYLQRPGQSPKLLIYKVSNRFSGVPDRFSGSGSGTVFTLKISRVEAEDLGVYYCFQVSHVPYTFGGGTKLEIKR
B3: K1B: human anti-PGE2 antibody from PROfusion mRNA display; VH SEQ ID NO 5, VL SEQ ID NO 9 (antibody, V domains shown)
VH: EVQLVQSGAEVKRPGASVKVSCKTSGYTFTNYDINWVRLAPGQGLEWMGCMNPTTGKTGYAQKFQGRVTMTRDTTIATAYMELSRLTSEDTAVYYCARGRGYSPGYGVAYADYWGQGTLVTVSS
VL: DIQLTQSPSSLPASVGDRVTITCRASQSISTYLNWYQQTPGKAPSLLIYAASSLQSGVPSRFSGSGSGTDFTLTISSLQPEDFATYYCQQSYSPPPTFGGGTKVEIKR
B4: K7H: human anti-PGE2 antibody from PROfusion mRNA display; VH SEQ ID NO 21, VL SEQ ID NO 24 (antibody, V domains shown)
VH: EVQLVQSGSELKKPGASVKVSCKASGYSFTEYGISWVRQAPGQGPEWMGCISPYNGKLHYAQKFLGRVTMTTDTSTNTAYMELRSLKSDDTAVYYCARGGFSSYDSSGYYYVTDHWGQGTLVTVSS
VL: DIRLTQSPSSLPASVGDRVTITCRASQSISTYLNWYQQTPGKAPSLLIYAASSLQSGVPSRFSGSGSGTDFTLTISSLQPEDFATYYCQQSYSPPPTFGGGTKVEIKR
B5: K3A: human anti-PGE2 antibody from PROfusion mRNA display; VH SEQ ID NO 13, VL SEQ ID NO 17 (antibody, V domains shown)
VH: EVQLVQSGAETKKPGASVEVSCKASGYSFTEYGISWVRQAPGQGPEWMGCISPYNGKLHYAQEFQGRVTMTTGTSTNTAYMELGSLRSDDTAVYYCARGGFSFYDSSGYYYVTDHWGQGTLVTVSS
VL: DIRLTQSPSSLSASVGDRVTITCRASQSIGSYLNWYQQKSGKAPKLLIYAASKLQSGVPSRFSGSGFGTDFTLTISSLQPEDSATYYCQQSDTTPFTFGQGTKLEIKR
B6: L11: human anti-PGE2 antibody from PROfusion mRNA display; VH SEQ ID NO 25, VL SEQ ID NO 29 (antibody, V domains shown)
VH: EVQLVQSGPELKKPGTSVKVSCKASGYTLTTYAMNWVRQAPGQGLEWMGWIDTSTGNPTYAPGFLGRFVFSLDTSLSTTYLQISSLKPDDTAVYYCARSSHTRPGDFWGQGTLVTVSS
VL: QSGLTQPPSVSGTPGQRVTISCSGSESNVGTNSVNWYQQLPGAAPRLLIRGNSDRPSGVPDRFSASKSGTSASLAISRLQSEDEADYFCGACDGRLSGLYVFGTGTKVTVL
B7: L21: human anti-PGE2 antibody from PROfusion mRNA display; VH SEQ ID NO 33, VL SEQ ID NO 36 (antibody, V domains shown)
VH: EVQLVQSGSELKKPGTSVKVSCKASGYTLTTYAMNWVRQAPGQGLEWMGWIGTSTGNPTYAQGFTGRFVFSLDTSVNTAHLQIYSLKAEDTALYYCARSSLTRPADYWGQGTLVTVSS
VL: QSGLTQPPSVSGAPGQRVTISCFGSSSNIGAGYDVHWYQQLPGAAPKLLIFGNNNRPSGVPDRFSGSKSGTSASLAITGLQAEDEADYYCQSCDSSLSGAVFGTGTKVTVL

What was measured:
[1] = Biotin-PGE2 ELISA (PGE2-biotinamide binding to captured IgG)
Method: Enzyme linked immunosorbent assays to screen for antibodies that bind prostaglandin E2 were performed according to at least one of the two following methods.
ELISA plates (Costar 3369, Corning, N.Y.) were coated with 50 μl of anti-host Fc IgG (Sigma, St. Louis, Mo.) at 2 μg/ml in PBS (Invitrogen Carlsbad, Calif.). Following an overnight incubation at 4° C., washed with PBS and the plate was blocked with 200 μl Superblock (Pierce #37535, Rockford, Ill.). The IgG containing samples were diluted to 1 μg/ml in Assay Buffer (10% Superblock in PBS containing 0.05% Surfactamps (Pierce #37535, Rockford, Ill.) and 50 μl/well added to each well and incubated for 1 hour at room temperature. Plates were washed four times with Tween-Tris Buffered Solution (TTBS). […] The titration curve samples were added to each IgG sample at 50 μl/well and incubated for 1 hour at room temperature. The plates were washed as previously described and 50 μl of 1:5000 dilution of streptavidin polyhrp40 (Fitzgerald Industries, Concord, Mass.) in Assay Buffer was added to each well and incubated for 45 minutes at room temperature. A final wash step was performed and the plates were developed using a single step TMB system (Sigma #T8665, St. Louis, Mo.) and 100 μl/well 2N H2SO4. Plates were read at 450 nm on a Molecular Devices Spectramax plate reader (Sunnyvale, Calif.). EC50 was determined using GraphPad Prism 5 (GraphPad Software, La Jolla, Calif.).

[2] = Biotin-PGE2 competition ELISA (prostaglandin selectivity); assay type: binding
Method: Competition enzyme linked immunosorbent assays were performed to determine prostaglandin binding specificity for antibodies that bind prostaglandin E2, according to at least one of the two following methods.
ELISA plates (Costar 3369, Corning, N.Y.) were coated with 50 μl/well of anti-host Fc IgG (Sigma, St. Louis, Mo.) at 2 μg/ml in PBS (Invitrogen, Carlsbad, Calif.). Following an overnight incubation at 4° C., the plate was blocked with 200 μl Superblock (Pierce #37535, Rockford, Ill.). The IgG samples were diluted to 6 μg/ml in Assay Buffer (10% Superblock in PBS containing 0.05% Surfactamps (Pierce #37535, Rockford, Ill.). The PGE2-biotinamide was diluted to 3 nM in Assay Buffer. A titration curve in Assay Buffer was prepared for the prostaglandins PGA2 (Cayman Chemicals, Ann Arbor, Mich.), PGD2 (Cayman Chemicals, Ann Arbor, Mich.) and PGE2 (Cayman Chemicals, Ann Arbor, Mich.) starting at 300 nM by a 1:10 serial dilution. The reagents were added to tubes at a volume of 50 μl each/tube and preincubated for 1 hour at room temperature. Following the preincubation, the mix was transferred to the blocked plates and allowed to incubate for 1 hour at room temperature. Next, the plates were washed four times with Tween 20-Tris buffered solution (TTBS). Streptavidin polyhrp40 in Assay Buffer (Fitzgerald Industries, Concord, Mass.) at a 1:5000 dilution was then added to the wells and incubated for 45 minutes at room temperature. A final wash step was performed and the plates were developed using a single step TMB system (Sigma #T8665, Sigma, St. Louis, Mo.) and 100 μl/well 2N H2SO4. Plates were read at 450 nm on a Molecular Devices Spectramax plate reader (Sunnyvale, Calif.). […] IC50 number was determined using GraphPad Prism 5 (GraphPad Software, La Jolla, Calif.). The cross reactivity index was then calculated by IC50 of PGE2/IC50 of other prostaglandin(s).

[3] = Biotin-PGE2 45 μM, IgG-containing COS7 media

| Molecule | EC50 [1] | ability to bind PGE2 in ELISA [1] | PG Selectivity in Biotin-PGE2 Competition ELISA (CRI %) PGA2 [2] | PG Selectivity in Biotin-PGE2 Competition ELISA (CRI %) PGD2 [2] | PG Selectivity in Biotin-PGE2 Competition ELISA (CRI %) PGE1 [2] | Binding to PGE2-Biotinamide (OD450) ([1]; Biotin-PGE2 0 μM) | Binding to PGE2-Biotinamide (OD450) ([1]; Biotin-PGE2 0.1 μM) | Binding to PGE2-Biotinamide (OD450) ([1]; Biotin-PGE2 0.3 μM) | Binding to PGE2-Biotinamide (OD450) ([1]; Biotin-PGE2 1 μM) | Binding to PGE2-Biotinamide (OD450) ([1]; Biotin-PGE2 2 μM) | Binding to PGE2-Biotinamide (OD450) ([1]; Biotin-PGE2 5 μM) | Binding to PGE2-Biotinamide (OD450) ([1]; Biotin-PGE2 15 μM) | Binding to PGE2-Biotinamide (OD450) [1, 3] |
| --- | --- | --- | --- | --- | --- | --- | --- | --- | --- | --- | --- | --- | --- |
| B1 | 2.46 nM | potently bound to PGE2 | 0.11% | <0.01% | 27% | – | – | – | – | – | – | – | – |
| B2 | 3.04 nM | potently bound to PGE2 | 0.24% | <0.01% | 23% | – | – | – | – | – | – | – | – |
| B3 | – | – | – | – | – | 0.07 | 0.13 | 0.21 | 0.29 | 0.27 | 0.67 | 0.82 | 0.88 |
| B4 | – | – | – | – | – | 0.04 | 0.03 | 0.04 | 0.06 | 0.10 | 0.13 | 0.29 | 0.24 |
| B5 | – | – | – | – | – | 0.11 | 0.22 | 0.34 | 0.51 | 0.61 | 0.67 | 0.78 | 0.58 |
| B6 | – | – | – | – | – | 0.04 | 0.04 | 0.04 | 0.05 | 0.07 | 0.07 | 0.07 | 0.07 |
| B7 | – | – | – | – | – | 0.08 | 0.10 | 0.16 | 0.25 | 0.32 | 0.31 | 0.41 | 0.46 |
